Measurements published in patent US8455447B2, “Modified therapeutic agents” (priority 2002, dated 2013).
Read-outs that look alike come from different tables or passages of the source. Ends that are not written are not given here.

B1: APT2439: Recombinant human CD59 (lacking the GPI anchor), with an amino-terminal methionine and a carboxy-terminal cysteine, expressed in E. coli (protein)
chain: MLQCYNCPNPTADCKTAVNCSSDFDACLITKAGLQVYNKCWKFEHCNFNDVTTRLRENELTYYCCKKDLCNFNEQLENC
B2: APT3280: disulphide conjugate of APT2439 and APT3146 (thiopyridylated bisMyr-KSSKSPSKKDDKKPGDC) (conjugate)
chain: B1 chain
peptide: KSSKSPSKKDDKKPGDC
B3: APT3073: disulphide conjugate of APT2439 and APT2258 (Myr-GSSKSPSKKDDKKPGDC (2-SPy)-NH2) (conjugate)
chain: B1 chain
peptide: GSSKSPSKKDDKKPGDC

How the values were obtained:
Format in all cases: cell-based
sheep erythrocytes [1] = experiment: Anti-haemolytic assay: classical pathway mediated haemolysis of sheep erythrocytes, presence of bovine serum albumin; settings: 40 mg/ml BSA (fatty acid free); non-stick plates; Example 3; read-out: IH50 (the source's name)
Protocol: Anti-Complement Activity of Acylated Peptide/APT154 Conjugates in the Presence of Bovine Serum Albumin (BSA)
7 wells of each of 4 lanes, missing the uppermost well, on a flat-bottomed microtitre plate were filled with 200 μL of the BSA/diluent solution. Into the uppermost wells, the required volume each test/control sample (APT3328, APT33330, APT33331 and APT070) was aliquotted, immediately followed by enough BSA/diluent solution to make the total volume up to 300 μL, to ensure a final concentration of 1.2 μM.
These 1.2 μM wells were then diluted across a 3 log dilution gradient and the rest of the assay performed as for the peptide/APT154 conjugates. The BSA diluent solution was used instead of pure diluent except for the Ao lane of the reaction plate, for which pure diluent (50 μL) and the BSA/diluent solution (50 μL) were aliquotted. The whole assay was repeated.
[…] In the Ao lane of the reaction plate, for which pure diluent (50 μL) and the BSA/diluent solution (50 μL) were aliquotted.
Multiple anti-haemolytic assays were performed on the reaction mixture of more than one batch of APT3147, in the presence and absence of fatty acid free bovine serum albumin (BSA) at both 4 mg/ml and 40 mg/ml, on non-stick plates.

sheep erythrocytes [2] = experiment: Anti-haemolytic assay: classical pathway mediated haemolysis of sheep erythrocytes, absence of albumin; settings: No BSA; non-stick plates; Example 3; read-out: IH50 (the source's name)
Protocol: The Anti-complement activity of the modified SCR1-3 agents was measured by classical pathway mediated haemolysis of sheep erythrocytes.
Step 1—The Dilution Plate
7 wells of each of 9 lanes, missing the uppermost well, on a flat-bottomed microtitre plate were filled with 200 μL of diluent (0.100 M Hepes, 0.150 M NaCl, 0.100% gelatin, adding NaOH to pH 7.4).
Into the uppermost wells, the required volume of each test/control sample was aliquotted, immediately followed by enough diluent to make the total volume up to 300 μL, to ensure a final concentration of 1.2 μM.
Using a multichannel Gilson pipette, all 9 top wells were mixed and 100 μL were transferred from these wells to the corresponding wells in 2nd row. […]
After incubation the plates were centrifuged at 1600 rpm for 3 min and the Nescofilm removed. 150 μL of supernatant from each well of the two plates was then transferred into the corresponding wells of two new microtitre plates and the absorbance of each well measured at 405 nm using a plate reader.
% inhibition was calculated using the following formula:
[formula] wherein: • Ao=the mean value of the absorbances in lane 1 • Amax=the mean value of the absorbances in lane 2 • t=the mean of the two absorbance values for each sample at any given concentration. […]

[3] = system: MAC formation on guinea pig erythrocytes; experiment: Reactive lysis system: inhibition of MAC formation on guinea pig erythrocytes; settings: for IC50: read-out: IH50 (concentration of protein required to achieve 50% inhibition of lysis)
Protocol: The ability of APT2439, APT3073 and APT3280 to inhibit MAC formation on guinea pig erythrocytes, was tested in a reactive lysis system. The effect of human albumin (HSA) on this activity was also investigated. Test samples were prepared at a range of concentrations in the presence or absence of 8 mg/ml fatty acid free HSA (Sigma, UK). 50 μL of these dilutions was added to 50 μL of a 5% suspension of guinea pig erythrocytes in PBS/0.1% gelatin, and incubated for 30 minutes at 37° C. 10 μL of human C5b6 complex (C5b6 was partially purified from acute phase serum) in PBS containing 15 mM EDTA and 0.1% gelatin, was added to the guinea pig erythrocyte suspension. 40 μL of normal human serum, diluted in PBS containing 15 mM EDTA and 0.1% gelatin was added as a source of C7, C8 and C9, and the suspension was incubated for 1 hour at 37 degrees Celsius. (The concentrations of C5b6 and normal human serum required to achieve about 80% lysis of guinea pig erythrocytes was pre-determined by titration.) The reaction mixtures were centrifuged for 5 minutes at 1000×g and the degree of haemolysis was determined by measuring the absorbance of the supernatant at 410 nm. To determine background lysis, a control reaction was prepared without serum. To determine maximal lysis, a control reaction containing no inhibitor (or test sample) was prepared. The percentage inhibition of haemolysis was determined for each protein at each concentration. An IH50 value (the concentration of protein required to achieve 50% inhibition of lysis) was determined for each protein in the presence and absence of HSA.

| Molecule | IC50 (sheep erythrocytes [1]) [nM] | IC50 (sheep erythrocytes [2]) [nM] | IC50 ([3]; Presence of HSA (2.7 mg/ml)) [nM] | concentrations required to achieve complete inhibition of haemolysis ([3]; absence of HSA) | IC50 ([3]; absence of HSA) [nM] | decrease in potency in the presence of HSA ([3]; presence of HSA) | increase in potency compared to APT2439 ([3]; absence of HSA) [log] | decrease in potency compared to its potency in the absence of HSA ([3]; presence of HSA, final concentration 2.7 mg/ml) [log] |
| --- | --- | --- | --- | --- | --- | --- | --- | --- |
| APT3147: bismyr-GSSKSPSKKKKKKPGDC conjugated to SCR1-3; SEQ ID NO: 26; two myristoyl groups (not fully specified (N-terminus); printed as bismyr-GSSKSPSKKKKKKPGDC; also: two myristoyl groups (bismyr-), places not given here, conjugated to SCR1-3) [bismyr-… conjugated to SCR1-3; two myristoyl groups] | 2.2 | 2.2 |  |  |  |  |  |  |
| B1 |  |  | 400 | mM concentrations | 600 | did not demonstrate any decrease in potency |  |  |
| B2 |  |  | 0.08 |  | 0.1 | did not demonstrate any decrease in potency | ~4 |  |
| B3 |  |  | 6 |  | 0.8 |  | ~3 | 1 |
